Series [1] can be described thus: immunoblot densitometry, Dox-induced Flp-In TREx293. The conditions noted are these: glycan lost; for expression_or_secretion: control: wild type hGPR176; for expression_or_secretion, percent_of_wt: control: wild type. On the technique in general: In western blotting, separated proteins are transferred to a membrane and probed.
A short description of series [2]: confocal GFP imaging with ER-Tracker. The conditions noted are these: glycan lost; control: wild type Gpr176-GFP.
The nature of series [3]: immunoblot after MG132 or bafilomycin A1, 6 h. The conditions noted are these: glycan lost; control: wild type Gpr176-GFP.
Series [4] can be described thus: immunoblot of PNGase F-treated live cells. The settings on record: glycan lost; control: cells without PNGase F.

B1: hGPR176: N-ter mut (N4Q;N11Q;N17Q;N27Q) (protein)
parent chain: MGHNGSWISPNASEPHNASGAEAAGVNRSALGEFGEAQLYRQFTTTVQVVIFIGSLLGNFMVLWSTCRTTVFKSVTNRFIKNLACSGICASLVCVPFDIILSTSPHCCWWIYTMLFCKVVKFLHKVFCSVTILSFPAIALDRYYSVLYPLERKISDAKSRELVMYIWAHAVVASVPVFAVTNVADIYATSTCTEVWSNSLGHLVYVLVYNITTVIVPVVVVFLFLILIRRALSASQKKKVIIAALRTPQNTISIPYASQREAELHATLLSMVMVFILCSVPYATLVVYQTVLNVPDTSVFLLLTAVWLPKVSLLANPVLFLTVNKSVRKCLIGTLVQLHHRYSRRNVVSTGSGMAEASLEPSIRSGSQLLEMFHIGQQQIFKPTEDEEESEAKYIGSADFQAKEIFSTCLEGEQGPQFAPSAPPLSTVDSVSQVAPAAPVEPETFPDKYSLQFGFGPFELPPQWLSETRNSKKRLLPPLGNTPEELIQTKVPKVGRVERKMSRNNKVSIFPKVDS
Consider B1, for which the expression_or_secretion result in series [1] is “decreases”.

B2: hGPR176: S13G (protein)
parent chain: MGHNGSWISPNASEPHNASGAEAAGVNRSALGEFGEAQLYRQFTTTVQVVIFIGSLLGNFMVLWSTCRTTVFKSVTNRFIKNLACSGICASLVCVPFDIILSTSPHCCWWIYTMLFCKVVKFLHKVFCSVTILSFPAIALDRYYSVLYPLERKISDAKSRELVMYIWAHAVVASVPVFAVTNVADIYATSTCTEVWSNSLGHLVYVLVYNITTVIVPVVVVFLFLILIRRALSASQKKKVIIAALRTPQNTISIPYASQREAELHATLLSMVMVFILCSVPYATLVVYQTVLNVPDTSVFLLLTAVWLPKVSLLANPVLFLTVNKSVRKCLIGTLVQLHHRYSRRNVVSTGSGMAEASLEPSIRSGSQLLEMFHIGQQQIFKPTEDEEESEAKYIGSADFQAKEIFSTCLEGEQGPQFAPSAPPLSTVDSVSQVAPAAPVEPETFPDKYSLQFGFGPFELPPQWLSETRNSKKRLLPPLGNTPEELIQTKVPKVGRVERKMSRNNKVSIFPKVDS
On to B2, for which, in series [1], the expression_or_secretion entry was “decreases”.

B3: hGPR176: N4S (protein)
parent chain: MGHNGSWISPNASEPHNASGAEAAGVNRSALGEFGEAQLYRQFTTTVQVVIFIGSLLGNFMVLWSTCRTTVFKSVTNRFIKNLACSGICASLVCVPFDIILSTSPHCCWWIYTMLFCKVVKFLHKVFCSVTILSFPAIALDRYYSVLYPLERKISDAKSRELVMYIWAHAVVASVPVFAVTNVADIYATSTCTEVWSNSLGHLVYVLVYNITTVIVPVVVVFLFLILIRRALSASQKKKVIIAALRTPQNTISIPYASQREAELHATLLSMVMVFILCSVPYATLVVYQTVLNVPDTSVFLLLTAVWLPKVSLLANPVLFLTVNKSVRKCLIGTLVQLHHRYSRRNVVSTGSGMAEASLEPSIRSGSQLLEMFHIGQQQIFKPTEDEEESEAKYIGSADFQAKEIFSTCLEGEQGPQFAPSAPPLSTVDSVSQVAPAAPVEPETFPDKYSLQFGFGPFELPPQWLSETRNSKKRLLPPLGNTPEELIQTKVPKVGRVERKMSRNNKVSIFPKVDS
Take B3: the expression_or_secretion entry in series [1] was “decreases”.

B4: hGPR176: N4D (protein)
parent chain: MGHNGSWISPNASEPHNASGAEAAGVNRSALGEFGEAQLYRQFTTTVQVVIFIGSLLGNFMVLWSTCRTTVFKSVTNRFIKNLACSGICASLVCVPFDIILSTSPHCCWWIYTMLFCKVVKFLHKVFCSVTILSFPAIALDRYYSVLYPLERKISDAKSRELVMYIWAHAVVASVPVFAVTNVADIYATSTCTEVWSNSLGHLVYVLVYNITTVIVPVVVVFLFLILIRRALSASQKKKVIIAALRTPQNTISIPYASQREAELHATLLSMVMVFILCSVPYATLVVYQTVLNVPDTSVFLLLTAVWLPKVSLLANPVLFLTVNKSVRKCLIGTLVQLHHRYSRRNVVSTGSGMAEASLEPSIRSGSQLLEMFHIGQQQIFKPTEDEEESEAKYIGSADFQAKEIFSTCLEGEQGPQFAPSAPPLSTVDSVSQVAPAAPVEPETFPDKYSLQFGFGPFELPPQWLSETRNSKKRLLPPLGNTPEELIQTKVPKVGRVERKMSRNNKVSIFPKVDS
As for B4, in series [1], the expression_or_secretion entry is “no change”.

B5: hGPR176: N17T (protein)
parent chain: MGHNGSWISPNASEPHNASGAEAAGVNRSALGEFGEAQLYRQFTTTVQVVIFIGSLLGNFMVLWSTCRTTVFKSVTNRFIKNLACSGICASLVCVPFDIILSTSPHCCWWIYTMLFCKVVKFLHKVFCSVTILSFPAIALDRYYSVLYPLERKISDAKSRELVMYIWAHAVVASVPVFAVTNVADIYATSTCTEVWSNSLGHLVYVLVYNITTVIVPVVVVFLFLILIRRALSASQKKKVIIAALRTPQNTISIPYASQREAELHATLLSMVMVFILCSVPYATLVVYQTVLNVPDTSVFLLLTAVWLPKVSLLANPVLFLTVNKSVRKCLIGTLVQLHHRYSRRNVVSTGSGMAEASLEPSIRSGSQLLEMFHIGQQQIFKPTEDEEESEAKYIGSADFQAKEIFSTCLEGEQGPQFAPSAPPLSTVDSVSQVAPAAPVEPETFPDKYSLQFGFGPFELPPQWLSETRNSKKRLLPPLGNTPEELIQTKVPKVGRVERKMSRNNKVSIFPKVDS
For the protein B5, the expression_or_secretion entry in series [1] is reported as “no change”.

B6: hGPR176: N17K (protein)
parent chain: MGHNGSWISPNASEPHNASGAEAAGVNRSALGEFGEAQLYRQFTTTVQVVIFIGSLLGNFMVLWSTCRTTVFKSVTNRFIKNLACSGICASLVCVPFDIILSTSPHCCWWIYTMLFCKVVKFLHKVFCSVTILSFPAIALDRYYSVLYPLERKISDAKSRELVMYIWAHAVVASVPVFAVTNVADIYATSTCTEVWSNSLGHLVYVLVYNITTVIVPVVVVFLFLILIRRALSASQKKKVIIAALRTPQNTISIPYASQREAELHATLLSMVMVFILCSVPYATLVVYQTVLNVPDTSVFLLLTAVWLPKVSLLANPVLFLTVNKSVRKCLIGTLVQLHHRYSRRNVVSTGSGMAEASLEPSIRSGSQLLEMFHIGQQQIFKPTEDEEESEAKYIGSADFQAKEIFSTCLEGEQGPQFAPSAPPLSTVDSVSQVAPAAPVEPETFPDKYSLQFGFGPFELPPQWLSETRNSKKRLLPPLGNTPEELIQTKVPKVGRVERKMSRNNKVSIFPKVDS
Consider B6, for which the expression_or_secretion result in series [1] is listed as “no change”.

B7: Gpr176: N-ter mut (protein)
parent chain: MGHNSSWVSPNTSHPRNTSGAEAGANLSAFGELSEAQLYRQFTTTVQVVIFIGSLLGNFMVLWSTCRTTVFKSVTNRFIKNLACSGICASVVCVPFDIILSSSPHCCWWIYTMLFCKVLKFLHKVFCSVTVLSFPAIALDRYYSVLYPLERKISDAKSRELVMYIWAHAVVASVPVFAVTNVADIYAMSTCTEVWSNSLGHLVYVLIYNVTTVIVPVAVVFLFLILIRRALSASQKKKVIIAALRTPQNTISIPYASQREAELHATLLSMVTVFILCSVPYATLVVYQTVLNVPNTSVFLLLTAIWLPKVSLLANPVLFLTVNKSVRKCLVGTLVQLHHRYSRRNVVSTGSGVAEPSLEPSMRSGSQLLEMFHIGQQQIFKPSEDEEESEAKYLGSADFQAKEVLTSCPEGEQEPPQLAPSVPPPGTVDSEPRVSPVAPMESGIFPDKYSLQFGFGPFELPPQWLSETRNSKKRLLPPLGNTPEELIQTKVPRVNRVERKMSRNNKVSIFPKVDS
As for B7, the localisation_or_trafficking entry in series [2] is “changes”. Also, the “expression_or_secretion, percent_of_wt” value in series [1] is on record as “decreases”. The degradation_or_half_life entry in series [3] is given as “decreases”.

B8: Gpr176: PNGase F (protein)
parent chain: MGHNSSWVSPNTSHPRNTSGAEAGANLSAFGELSEAQLYRQFTTTVQVVIFIGSLLGNFMVLWSTCRTTVFKSVTNRFIKNLACSGICASVVCVPFDIILSSSPHCCWWIYTMLFCKVLKFLHKVFCSVTVLSFPAIALDRYYSVLYPLERKISDAKSRELVMYIWAHAVVASVPVFAVTNVADIYAMSTCTEVWSNSLGHLVYVLIYNVTTVIVPVAVVFLFLILIRRALSASQKKKVIIAALRTPQNTISIPYASQREAELHATLLSMVTVFILCSVPYATLVVYQTVLNVPNTSVFLLLTAIWLPKVSLLANPVLFLTVNKSVRKCLVGTLVQLHHRYSRRNVVSTGSGVAEPSLEPSMRSGSQLLEMFHIGQQQIFKPSEDEEESEAKYLGSADFQAKEVLTSCPEGEQEPPQLAPSVPPPGTVDSEPRVSPVAPMESGIFPDKYSLQFGFGPFELPPQWLSETRNSKKRLLPPLGNTPEELIQTKVPRVNRVERKMSRNNKVSIFPKVDS
Consider B8, for which the expression_or_secretion entry in series [4] is listed as “no change”.

B9: Gpr176: N-ter/ECL3 (protein)
parent chain: MGHNSSWVSPNTSHPRNTSGAEAGANLSAFGELSEAQLYRQFTTTVQVVIFIGSLLGNFMVLWSTCRTTVFKSVTNRFIKNLACSGICASVVCVPFDIILSSSPHCCWWIYTMLFCKVLKFLHKVFCSVTVLSFPAIALDRYYSVLYPLERKISDAKSRELVMYIWAHAVVASVPVFAVTNVADIYAMSTCTEVWSNSLGHLVYVLIYNVTTVIVPVAVVFLFLILIRRALSASQKKKVIIAALRTPQNTISIPYASQREAELHATLLSMVTVFILCSVPYATLVVYQTVLNVPNTSVFLLLTAIWLPKVSLLANPVLFLTVNKSVRKCLVGTLVQLHHRYSRRNVVSTGSGVAEPSLEPSMRSGSQLLEMFHIGQQQIFKPSEDEEESEAKYLGSADFQAKEVLTSCPEGEQEPPQLAPSVPPPGTVDSEPRVSPVAPMESGIFPDKYSLQFGFGPFELPPQWLSETRNSKKRLLPPLGNTPEELIQTKVPRVNRVERKMSRNNKVSIFPKVDS
B9: the “expression_or_secretion, percent_of_wt” value in series [1] is recorded as “decreases”.

The values above are taken from PMC7064540.
